Numbering of substitutions follows the chain as printed.
T1: recombinant protein containing hST2 extracellular domain with mouse antibody heavy chain Fc tag (hST2-ECD-mFc) (human)
T1 construct: Used for SPR and for ELISA of chimeric and humanized antibodies; also called human ST2 antigen
T1 chain: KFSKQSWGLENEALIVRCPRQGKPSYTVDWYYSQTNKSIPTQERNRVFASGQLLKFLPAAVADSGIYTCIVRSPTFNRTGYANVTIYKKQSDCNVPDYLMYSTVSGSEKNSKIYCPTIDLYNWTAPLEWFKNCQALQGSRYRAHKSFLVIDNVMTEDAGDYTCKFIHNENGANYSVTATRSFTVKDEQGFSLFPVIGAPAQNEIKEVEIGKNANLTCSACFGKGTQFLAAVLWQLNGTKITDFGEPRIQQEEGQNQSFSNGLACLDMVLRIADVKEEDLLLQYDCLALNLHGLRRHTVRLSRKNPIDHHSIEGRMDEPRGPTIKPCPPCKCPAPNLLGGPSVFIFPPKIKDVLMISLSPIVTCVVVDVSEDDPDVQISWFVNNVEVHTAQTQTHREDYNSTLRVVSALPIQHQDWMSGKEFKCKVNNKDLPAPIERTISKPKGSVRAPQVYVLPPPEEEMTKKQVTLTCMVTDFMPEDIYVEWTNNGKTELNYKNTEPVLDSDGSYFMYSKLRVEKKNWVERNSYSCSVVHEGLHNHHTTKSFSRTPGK

T2: human ST2 (hST2, Interleukin-1 receptor-like 1 isoform A) on cells (human, UniProt Q01638 19-556)
T2 sequence: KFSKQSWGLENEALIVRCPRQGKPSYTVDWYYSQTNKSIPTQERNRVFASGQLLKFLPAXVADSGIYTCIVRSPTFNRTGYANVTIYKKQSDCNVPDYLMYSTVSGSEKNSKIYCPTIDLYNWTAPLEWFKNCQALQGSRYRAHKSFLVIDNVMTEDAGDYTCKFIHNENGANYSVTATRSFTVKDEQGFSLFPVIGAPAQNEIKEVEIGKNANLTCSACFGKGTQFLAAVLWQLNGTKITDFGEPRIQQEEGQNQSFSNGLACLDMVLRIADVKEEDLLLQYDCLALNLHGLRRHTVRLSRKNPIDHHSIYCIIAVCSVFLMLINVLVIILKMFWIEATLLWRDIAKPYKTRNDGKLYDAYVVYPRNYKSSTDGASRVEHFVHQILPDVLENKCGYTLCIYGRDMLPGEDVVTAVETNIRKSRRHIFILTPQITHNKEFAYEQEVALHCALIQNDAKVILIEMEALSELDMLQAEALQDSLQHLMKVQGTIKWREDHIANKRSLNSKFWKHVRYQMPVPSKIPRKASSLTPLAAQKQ

T3: cynomolgus monkey ST2 antigen (Cyno-ST2-his, Sino biological, 90915-C08H) (cynomolgus monkey, UniProt Q01638 19-328 (human entry))
T3 construct: Bought protein; not shown: his tag
T3 chain: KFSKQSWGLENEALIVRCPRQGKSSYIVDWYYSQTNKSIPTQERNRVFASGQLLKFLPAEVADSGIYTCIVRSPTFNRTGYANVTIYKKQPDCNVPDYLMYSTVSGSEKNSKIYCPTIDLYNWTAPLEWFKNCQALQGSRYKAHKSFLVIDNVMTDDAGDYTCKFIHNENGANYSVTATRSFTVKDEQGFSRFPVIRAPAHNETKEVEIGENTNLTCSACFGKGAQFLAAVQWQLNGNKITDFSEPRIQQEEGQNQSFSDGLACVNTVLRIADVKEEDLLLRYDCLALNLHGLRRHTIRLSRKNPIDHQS

B1: RG6149 (antibody Ab2 in CN104334582, prepared in-house) (antibody, human IgG2, kappa, V domains shown)
VH: EVQLVQSGAEVKKPGESLKISCKGSGYSFTNYWIGWVRQMPGKGLEWMGIIYPGNSDTRFSPSFQGQVTISADKSITTAYLQWSSLKASDTAMYYCARHGTSSDYYGLDVWGQGTTVTVSS
VL: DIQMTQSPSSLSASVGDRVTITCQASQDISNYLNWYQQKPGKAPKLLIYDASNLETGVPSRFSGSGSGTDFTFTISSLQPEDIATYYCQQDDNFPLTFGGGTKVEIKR
notes: Control anti-ST2 antibody
B2: GSK3772847 (antibody STLM208 in CN104411333, prepared in-house) (antibody, human IgG2, kappa, V domains shown)
VH: EVQLLESGGGLVQPGGSLRLSCAASGFTFSIYDMIWVRQAPGKGLEWVSSIRGEGGGTYYADSVKGRFTISRDNSKNTLYLQMNSLRAEDTAVYYCARDPWSTEGSFFVLDYWGQGTLVTVSS
VL: EIVLTQSPATLSLSPGERATLSCRASQSVDDDLAWYQQKPGQAPRLLIYDASNRATGIPARFSGSGSGTDFTLTISSLEPEDFAVYYCQQYITAPLTFGQGTKVEIKR
notes: Control anti-ST2 antibody
B3: Chimeric 31C8 (antibody, human IgG2, kappa, V domains shown)
VH: QVQLQQSGPELVRPGASVTLSCKASGYIFIDSEMHWVKQTPVHGLEWIGAIDPETGDTVYNQKFKGKATLTADKSSSTASMELSSLTSEDSAVYYCTGSTTDYYFAYWGQGTTLTVSS
VL: DIVMTQAAFSNPVTLGTSASISCRSSKSLLHSNGIIYLYWYLQKPGQSPQLLIYQMSNLASGVPDRFSSSGSGTDFTLRISRVEAEDVGVYYCAQNLELPFTFGSGTKLEIKR
notes: also called xi31C8
B4: Humanized 31C8-1.1 (antibody, human IgG2, kappa, V domains shown)
VH: EVQLVQSGAEVKKPGATVKISCKASGYIFIDSEMHWVQQAPGKGLEWMGAIDPETGDTVYAEKFQGRVTITADKSSSTAYMELSSLRSEDTAVYYCTGSTTDYYFAYWGQGTLVTVSS
VL: DIQMTQSPSSLSASVGDRVTITCRSSKSLLHSNGIIYLYWYQQKPGKAPKLLIYQLSNLASGVPSRFSSSGSGTDFTLTISSLQPEDFATYYCAQNLELPFTFGQGTKVEIKR
notes: also called hz31C8-1.1; hz31C81-1.1
B5: Humanized 31C8-1.2 (antibody, human IgG2, kappa, V domains shown)
VH: B4 VH with E1Q, E10K, E62K, Q65K
VL: B4 VL
notes: also called hz31C8-1.2; hz31C81-1.2
B6: Chimeric 7D1 (antibody, human IgG2, kappa, V domains shown)
VH: QVQLQQSGAELVRPGASVTLSCKASGYTFTDYEMHWVKQTPVHGLDWIGTIDPETGDTAYNQKFKGRATLTADKSSSTAYMELSSLTSEDSAVYYCTRYSYTNSPYGMDYWGQGTSVTVSS
VL: DVVMTQTPKFLLVSAGDRVTITCKASQSVSNDVAWYQQKPGQSPKLLIYYASNRYTGVPDRFTGSGYGTDFTFTINTVQAEDLAVYFCQQDYSSPYTFGGGTKLEIKR
notes: also called xi7D1
B7: Chimeric 17E2 (antibody, human IgG2, kappa, V domains shown)
VH: QVQLQQSGAELVRPGASVTLSCKASGYTFTDYEMHWVKQTPVLGLEWIGAIDPETGDTAYNQKFKGKATLTADKSSSTAYMELSSLASEDSAVYYCIRVDSNYDYFDYWGQDTTLTVSS
VL: DIVLTQSPPILSASPGEKVTMTCRASSSVSYMHWYQQKPGSSPKPWIYDTSNLASGVPARFSGSGSGTSYSLTISRVEAEDAATYYCQQWSSNPLTFGAGTKLELKR
notes: also called xi17E2

Target: T1, recombinant protein containing hST2 …
Assay: ELISA, plate coated with hST2-ECD-mFc, antibody not heated
Protocol: The anti-ST2 antibodies were diluted with PBS buffer to a concentration of 1.5 mg/mL. […], the samples were assayed by ELISA for their binding activity for an antigen The ELISA procedure is as follows: A 96-well plate was coated with 2 µg/mL hST2-ECD-mFc as the antigen at 100 µL/well and incubated at 4° C. overnight. After the antigen not adsorbed was well washed off, the non-specific binding sites were blocked with a blocking buffer (PBST containing 1% bovine serum albumin). After the plate was washed three times with a washing buffer (PBST, PBS containing 0.05% (v/v) Tween 20), the anti-ST2 antibodies (serially diluted 3-fold from an initial concentration of 1.5 µg/mL to 8 concentrations) were added at 100 µL/well, and the plate was incubated at 37° C. for 1 h. […] After the plate was incubated at room temperature for 5 min, a stop solution (2 N H₂SO₄) was added to stop the reactions. The signals were read at 450 nm using a plate reader (PE, Envision). The data were analyzed using GraphPad Prism5, and the EC₅₀ values were calculated.

Row | Binder | EC50 [nM]
1 | B1 | 0.143
2 | B2 | 0.109
3 | B3 | 0.0744
4 | B4 | 0.0906
5 | B5 | 0.092

These binders were tested against T2, human ST2 (hST2, Interleukin-1 …) (assay: cell-based or functional assay).

Row | Binder | IC50, blocking of the IL33/ST2-induced IL5 secretion on CD4+ T cells (hIL33 plus IL2 co-stimulation) [nM]
6 | B1 | 0.32
7 | B3 | 0.09
8 | B6 | 0.12
9 | B7 | 0.08

Target: T3, cynomolgus monkey ST2 antigen …
Assay: ELISA, plate coated with Cyno-ST2-his
Protocol: ST2 binding screening and analysis of antibodies were performed by ELISA using hST2-ECD-mFc (for assays of chimeric and humanized antibodies), hST2-ECD-hFc protein (for assays of hybridoma antibodies) and Cyno-ST2-his (Sino biological, 90915-C08H) as antigens. A high-adsorption 96-well plate (Costar, 9018) was coated with 2 µg/mL hST2-ECD-mFc or Cyno-ST2-his antigen at 100 µL/well and incubated overnight at 4° C. After the antigen not adsorbed was well washed off, the non-specific binding sites were blocked with a blocking buffer (PBS containing 2% bovine serum albumin). After the plate was washed three times with a washing buffer (PBS containing 0.05% (v/v) Tween 20), the anti-ST2 antibodies (serially diluted 3-fold from an initial concentration of 10 nM to 8 concentrations: 3.333 nM, 1.111 nM, 0.370 nM, 0.123 nM, 0.041 nM, 0.014 nM, 0.005 nM, and 0.002 nM) were added at 100 µL/well, and the plate was incubated at room temperature for 1 h. After the plate was washed with the washing buffer, a horseradish peroxidase (HRP)-conjugated secondary antibody was added, and the plate was incubated for another 60 min. After the plate was washed with the washing buffer, the substrate TMB solution (Thermo, 00-4201-56) was added at 100 µL/well, and the plate was incubated at room temperature for 2 min. A stop solution (2 N H₂SO₄) was added at 100 µL/well to terminate the reactions. Colorimetric signals were generated and read at 450 nm using a microplate reader (PE, Envision). The data were analyzed using GraphPad Prism5, and the EC₅₀ values were calculated.
The humanized antibodies hz31C81-1.1 (the amino acid sequence of the heavy chain set forth in SEQ ID NO: 75 and the amino acid sequence of the light chain set forth in SEQ ID NO: 81) and hz31C8-1.2 (the amino acid sequence of the heavy chain set forth in SEQ ID NO: 77 and the amino acid sequence of the light chain set forth in SEQ ID NO: 81) were subjected to affinity, binding, blocking and cell function analyses using the methods described in Example 4, Example 5, Example 6, Example 7, Example 8, Example 9 and Example 10.

Row | Binder | EC50 [nM]
10 | B1 | 0.178
11 | B2 | 0.242
12 | B3 | 0.069
13 | B4 | 0.0716
14 | B5 | 0.0746

Source: US20230272086A1 (CHIA TAI TIANQING PHARMACEUTICAL GROUP, published 2023)
